The results in this text go back to paper doi:10.1101/2020.11.24.396648.

What all share (test): cryo-EM structure
Assay [1] has as its target S. aureus 70S ribosome (Staphylococcus aureus (endogenous in SH1000)) (UniProt P48940).
Assay [2] concerns the target L. monocytogenes 70S ribosome (Listeria monocytogenes (endogenous in EDG-e)) (UniProt B8DAY5).
The target of assay [3] is E. faecalis 70S ribosome (Enterococcus faecalis (endogenous in TX5332)).

Chain of UniProt P48940 (P48940 whole entry, looked up): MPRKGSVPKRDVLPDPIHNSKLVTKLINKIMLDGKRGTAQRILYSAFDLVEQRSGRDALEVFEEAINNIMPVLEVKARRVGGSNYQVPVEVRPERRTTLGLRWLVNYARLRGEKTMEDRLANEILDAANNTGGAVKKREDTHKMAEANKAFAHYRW

For the substance “S. haemolyticus VgaALC-EQ2-FLAG3 (ATPase-deficient E105Q/E410Q, C-terminal FLAG3 tag) (natural protein)”, the occupancy of the factor on the ribosome (percent of picked ribosomal particles) in assay [1] was 60%.
In assay [2], “L. monocytogenes VgaL-EQ2-HTF (Lmo0919, ATPase-deficient E104Q/E408Q, C-terminal His6-TEV-FLAG3 tag) (natural protein)” showed an occupancy of the factor on the ribosome (percent of picked ribosomal particles) of 70%.
For “E. faecalis LsaA-EQ2-HTF (ATPase-deficient E142Q/E452Q, C-terminal His6-TEV-FLAG3 tag) (natural protein)”, the occupancy of the factor on the ribosome (percent of picked ribosomal particles) in assay [3] is over 95%.
